Source: PMC6136799, “The Npa1p complex chaperones the assembly of the earliest eukaryotic large ribosomal subunit precursor” (PLoS Genetics, 2018)

Tests used:
GST-Npa1p = target: T1, GST-Npa1p (S. cerevisiae, UniProt P34241 1-1764); test: pull-down; 2 μg GST-tagged protein on glutathione magnetic beads, 2 μg His-Dbp6p in 200 μl IP buffer (50 mM Tris-HCl pH 8, 150 mM potassium chloride, 5 mM magnesium chloride, 0.2% Nonidet P-40), 1 h at 16°C; Western with anti-His; also after RNase A treatment; details: both partners purified
T1 construct: Npa1p, S. cerevisiae; NPA1 ORF inserted into XhoI-digested pGEX-6P1 (plasmid pRC59); source: E. coli Rosetta λDE3, purified (Glutathione Sepharose 4 FF)
T1 sequence (P34241 whole entry): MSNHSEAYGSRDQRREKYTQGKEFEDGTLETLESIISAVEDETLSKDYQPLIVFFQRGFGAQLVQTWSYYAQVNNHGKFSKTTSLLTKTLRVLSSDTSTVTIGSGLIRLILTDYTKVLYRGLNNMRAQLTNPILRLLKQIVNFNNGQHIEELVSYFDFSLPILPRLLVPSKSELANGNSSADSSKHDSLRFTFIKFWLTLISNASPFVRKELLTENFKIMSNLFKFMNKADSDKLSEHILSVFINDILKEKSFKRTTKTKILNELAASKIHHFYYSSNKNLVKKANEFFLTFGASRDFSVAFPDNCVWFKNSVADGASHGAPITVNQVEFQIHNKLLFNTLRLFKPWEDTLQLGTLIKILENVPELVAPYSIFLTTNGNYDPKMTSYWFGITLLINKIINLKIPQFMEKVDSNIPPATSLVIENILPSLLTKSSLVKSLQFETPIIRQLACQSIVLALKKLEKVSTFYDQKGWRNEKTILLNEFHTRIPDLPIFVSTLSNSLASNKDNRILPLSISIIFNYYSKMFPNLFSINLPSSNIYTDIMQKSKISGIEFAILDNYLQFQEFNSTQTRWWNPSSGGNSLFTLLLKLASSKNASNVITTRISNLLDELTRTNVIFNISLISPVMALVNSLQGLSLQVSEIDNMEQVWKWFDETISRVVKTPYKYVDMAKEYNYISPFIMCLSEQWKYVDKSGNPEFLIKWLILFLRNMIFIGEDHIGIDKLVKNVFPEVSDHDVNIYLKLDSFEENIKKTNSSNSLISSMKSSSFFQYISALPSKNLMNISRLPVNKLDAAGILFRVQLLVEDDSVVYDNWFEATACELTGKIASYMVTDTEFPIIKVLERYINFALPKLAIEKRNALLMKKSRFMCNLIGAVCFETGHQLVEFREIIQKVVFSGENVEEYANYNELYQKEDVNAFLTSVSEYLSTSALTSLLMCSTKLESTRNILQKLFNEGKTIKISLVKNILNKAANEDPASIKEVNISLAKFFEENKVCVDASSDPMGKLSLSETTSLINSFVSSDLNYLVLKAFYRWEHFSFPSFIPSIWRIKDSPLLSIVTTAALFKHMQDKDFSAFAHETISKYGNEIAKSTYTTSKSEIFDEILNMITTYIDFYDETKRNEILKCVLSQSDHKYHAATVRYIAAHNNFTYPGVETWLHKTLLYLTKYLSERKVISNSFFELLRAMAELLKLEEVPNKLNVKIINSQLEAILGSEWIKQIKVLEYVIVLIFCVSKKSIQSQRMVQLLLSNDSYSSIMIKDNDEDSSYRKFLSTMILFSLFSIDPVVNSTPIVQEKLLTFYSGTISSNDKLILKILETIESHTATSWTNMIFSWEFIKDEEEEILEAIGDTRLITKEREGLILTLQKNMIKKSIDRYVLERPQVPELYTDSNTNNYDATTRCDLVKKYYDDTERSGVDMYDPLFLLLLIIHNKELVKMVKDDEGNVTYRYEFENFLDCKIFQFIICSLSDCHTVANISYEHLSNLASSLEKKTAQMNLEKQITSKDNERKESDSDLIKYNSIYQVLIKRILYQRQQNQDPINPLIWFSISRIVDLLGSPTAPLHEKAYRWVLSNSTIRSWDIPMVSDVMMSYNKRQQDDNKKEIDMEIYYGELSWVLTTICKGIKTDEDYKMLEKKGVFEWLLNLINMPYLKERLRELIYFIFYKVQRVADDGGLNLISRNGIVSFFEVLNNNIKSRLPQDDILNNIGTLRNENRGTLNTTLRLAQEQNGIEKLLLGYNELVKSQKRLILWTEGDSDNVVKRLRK

GST-Npa2p = target: T2, GST-Npa2p (S. cerevisiae, UniProt P47108 1-1174); test: as above; details: both partners purified
T2 construct: Npa2p, S. cerevisiae; NPA2 ORF inserted into XhoI-digested pGEX-6P1 (plasmid pRC58); source: E. coli Rosetta λDE3, purified (Glutathione Sepharose 4 FF)
T2 sequence (looked up): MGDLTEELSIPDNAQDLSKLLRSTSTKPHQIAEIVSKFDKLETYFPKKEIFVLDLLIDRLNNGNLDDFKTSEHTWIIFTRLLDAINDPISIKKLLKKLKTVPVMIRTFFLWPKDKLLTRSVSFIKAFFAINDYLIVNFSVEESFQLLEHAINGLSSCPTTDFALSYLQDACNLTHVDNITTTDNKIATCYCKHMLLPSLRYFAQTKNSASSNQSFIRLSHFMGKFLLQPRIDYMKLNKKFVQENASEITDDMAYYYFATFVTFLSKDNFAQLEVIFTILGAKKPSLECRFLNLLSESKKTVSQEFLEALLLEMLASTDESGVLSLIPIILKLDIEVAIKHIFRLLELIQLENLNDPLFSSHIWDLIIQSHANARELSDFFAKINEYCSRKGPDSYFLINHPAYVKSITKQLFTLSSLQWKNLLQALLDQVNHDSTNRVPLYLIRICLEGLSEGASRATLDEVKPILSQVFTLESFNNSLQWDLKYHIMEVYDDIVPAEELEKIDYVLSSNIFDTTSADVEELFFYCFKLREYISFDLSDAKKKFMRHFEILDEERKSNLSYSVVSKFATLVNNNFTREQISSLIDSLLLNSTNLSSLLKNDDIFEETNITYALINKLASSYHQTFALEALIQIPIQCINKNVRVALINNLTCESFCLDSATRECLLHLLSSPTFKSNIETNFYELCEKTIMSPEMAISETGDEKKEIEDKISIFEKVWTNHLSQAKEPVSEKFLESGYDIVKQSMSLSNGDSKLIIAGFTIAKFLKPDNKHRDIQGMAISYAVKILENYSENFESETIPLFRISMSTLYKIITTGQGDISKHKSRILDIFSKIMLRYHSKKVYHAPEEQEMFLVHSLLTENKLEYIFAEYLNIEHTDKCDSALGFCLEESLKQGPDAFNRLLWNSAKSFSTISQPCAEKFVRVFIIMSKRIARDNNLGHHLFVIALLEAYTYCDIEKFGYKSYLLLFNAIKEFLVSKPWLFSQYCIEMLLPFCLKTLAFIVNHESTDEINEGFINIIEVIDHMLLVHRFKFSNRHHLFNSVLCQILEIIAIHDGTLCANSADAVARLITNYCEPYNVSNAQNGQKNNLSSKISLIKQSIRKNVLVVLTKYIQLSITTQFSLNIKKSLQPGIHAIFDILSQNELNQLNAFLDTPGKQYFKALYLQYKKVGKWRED

- binding result (GST-Npa1p): binds
- binding result (GST-Npa2p): binds
B1: His-Dbp6p (natural protein, S. cerevisiae, UniProt P53734 1-629, looked up)
chain: MFASRFDPSQLTAPAASAPEGIVGTTPPAIVPLKRQATESDNEEYGSHQDSDESSNSSSEEDEDRMQVDYGASEEDSSEVEEEESKPSTHSTVLSRFKQTVSLQERLGASDIAESKEDEGIEDEAASTHQLKQIPQPEFVKNPMNLNTNSLQFKSTGWLNTEKIYYDNSLIKPFSDYANELEAKLLQNICKNFSTNTFPIQSIILDSILPVLNFTLNVSKRNFTRRIGDILVNAATGSGKTLAYSIPIVQTLFKRQINRLRCIIIVPTKLLINQVYTTLTKLTQGTSLIVSIAKLENSLKDEHKKLSNLEPDILITTPGRLVDHLNMKSINLKNLKFLIIDEADRLLNQSFQGWCPKLMSHLKTDKLDTLPGNVIKMIFSATLTTNTEKLNGLNLYKPKLFLKQTDKLYQLPNKLNEFNINIPTAKSVYKPLILLYSICQFMAHSPIAAKILIFVKSNESSIRLSKLLQLICESRSQSSVLKNLQNLAVSINSVNSNNSKAENKKIVANFSHHSESAGITILITTDIMSRGIDINDITQVINYDPPMSSQQYVHRVGRTARANELGSAYNLLVGRGERTFFDDLNKDLDRDGKSVQPLELDFTLLESDSELYTSSLESLKNYHNNTAQA
notes: Dbp6p, S. cerevisiae; DBP6 ORF cloned into a modified pET-15b (plasmid pET-DBP6); also called His-tagged Dbp6p; source: E. coli Rosetta λDE3, purified (HisTrap FF, Superdex 200)
